Test results from patent US20160068605A1 (Janssen / Centocor, published 2016).

T1: human CD123 SP1 ECD displayed on pDisplay-transfected cells (human, UniProt P26951 20-305)
T1 construct: ECD anchored on the surface of stably transfected HEK293 cells by the PDGFR transmembrane domain; also called hCD123 SP1 cells; hCD123 cells
T1 sequence: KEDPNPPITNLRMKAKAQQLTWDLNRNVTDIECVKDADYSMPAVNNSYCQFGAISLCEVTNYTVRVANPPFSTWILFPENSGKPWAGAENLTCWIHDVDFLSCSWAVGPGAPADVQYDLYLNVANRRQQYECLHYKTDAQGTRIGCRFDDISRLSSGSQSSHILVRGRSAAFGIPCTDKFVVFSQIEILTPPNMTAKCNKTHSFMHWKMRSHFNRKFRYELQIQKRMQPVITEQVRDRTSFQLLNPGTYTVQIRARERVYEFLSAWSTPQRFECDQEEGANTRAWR

T2: human CD123 SP2 ECD displayed on pDisplay-transfected cells (human, UniProt P26951 101-305)
T2 construct: ECD anchored on the surface of stably transfected HEK293 cells; also called hCD123 SP2 cells; pDisplay CD123SP2
T2 sequence: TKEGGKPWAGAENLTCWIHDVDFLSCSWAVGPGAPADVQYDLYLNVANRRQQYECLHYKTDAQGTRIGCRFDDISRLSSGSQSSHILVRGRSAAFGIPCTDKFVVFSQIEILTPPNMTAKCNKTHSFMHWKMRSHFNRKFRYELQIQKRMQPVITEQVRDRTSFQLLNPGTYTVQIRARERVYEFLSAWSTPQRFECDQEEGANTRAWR

T3: Recombinant human CD123 SP1 ECD-His tag protein (human, UniProt P26951 20-305)
T3 construct: bought from R&D Systems (#301-R3/CF); biotinylated for some assays; also called rhCD123 SP1; huCD123 ECD SP1
T3 sequence: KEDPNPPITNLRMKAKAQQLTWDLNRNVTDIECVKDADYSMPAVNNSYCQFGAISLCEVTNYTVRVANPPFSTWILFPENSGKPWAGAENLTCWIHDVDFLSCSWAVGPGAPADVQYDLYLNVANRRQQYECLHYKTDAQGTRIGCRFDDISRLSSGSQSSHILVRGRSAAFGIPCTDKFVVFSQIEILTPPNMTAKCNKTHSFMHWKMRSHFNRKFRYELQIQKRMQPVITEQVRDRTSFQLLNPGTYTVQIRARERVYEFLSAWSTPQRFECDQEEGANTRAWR

T4: Recombinant human CD123 SP2 ECD protein (human, UniProt P26951 101-303)
T4 construct: also called rhCD123 SP2; CD123 ECD SP2
T4 sequence: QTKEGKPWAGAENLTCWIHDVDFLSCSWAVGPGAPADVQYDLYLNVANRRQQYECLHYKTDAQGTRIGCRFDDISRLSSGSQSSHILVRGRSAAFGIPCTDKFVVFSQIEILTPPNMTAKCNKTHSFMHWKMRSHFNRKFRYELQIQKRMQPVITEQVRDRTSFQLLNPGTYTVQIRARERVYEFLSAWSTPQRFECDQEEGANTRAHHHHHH


Columns and labels:
[1] = target: T1, human CD123 SP1 ECD displayed on …; experiment: MSD-CAT on pDisplay cells
Method: (§1) The MSD-CAT was developed in-house as a label-free method to determine affinity using intact cells in a high throughput format. […] Cell lines used were human pDisplay CD123SP1 and pDisplay CD123SP2. […] These samples were prepared in DMEM Glutamax medium containing 0.05% Azide, 1% BSA, 3 mM EDTA. […] After equilibration the plate was centrifuged for 5 minutes ˜1000 rpm and free anti-CD3 detected on the supernatant. […] The assay buffer was removed without washing and 50 uL/well of 0.7 ug/mL of biotinylated antigen in assay buffer were added to MSD plates and incubated overnight (˜16 hours at 4° C.).

[2] = target: T2, human CD123 SP2 ECD displayed on …; experiment: MSD-CAT on pDisplay cells
Method: as §1

[3] = target: T3, Recombinant human CD123 SP1 ECD-His tag …; experiment: SPR Biacore T200, captured antibody
Method: (§2) Kinetic studies were performed at 25° C. using a Biacore T200 (Biacore, Inc., now part of GE Healthcare). […] The carboxymethyl groups of dextran were activated with N-Ethyl-N′-(3-Dimethylaminopropyl)carbodiimide (EDC) and N-hydroxysuccinimide (NHS). The anti-Fc antibody was coupled at pH 4.5 in 10 mM sodium acetate. Any remaining reactive sites on the surface were blocked by reaction with ethanolamine. […] 40-70 RU of antibody were captured. […] Association data was collected for 2 min followed by 10 min of dissociation. The surface was regenerated with 30 μL of 100 mM H3PO4 100 μL/min, followed by 50 mM NaOH. The samples for kinetic analysis were prepared in PBS-based buffer (D-PBS containing 3 mM EDTA and 0.005% surfactant P20). Data reported is the difference in SPR signal between the flow cell containing the captured antibody and a reference cell without captured antibody. Additional instrumental contributions to the signal were removed by subtraction of the data from the blank injection from the reference-subtracted signal. Data were analyzed by fitting association and dissociation phases at all concentrations (global fit) with a 1:1 binding model using the BIAevaluation software (BIAcore, Inc.).

[4] = target: T4, Recombinant human CD123 SP2 ECD protein; experiment: SPR Biacore T200, captured antibody
Method: as §2

[5] = target: T5, cell-surface CD3 epsilon on primary cynomolgus T cells (cynomolgus monkey, UniProt Q95LI5 22-198); experiment: flow cytometry competition with labeled CD3B146 on T cells
T5 construct: whole, on cells; also called cynomolgus CD3e; Cyno T-cells
T5 sequence (Q95LI5 22-198): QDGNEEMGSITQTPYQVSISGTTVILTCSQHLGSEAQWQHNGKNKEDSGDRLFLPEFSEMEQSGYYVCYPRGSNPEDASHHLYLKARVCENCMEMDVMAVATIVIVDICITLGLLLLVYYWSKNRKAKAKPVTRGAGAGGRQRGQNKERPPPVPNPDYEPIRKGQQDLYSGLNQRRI
Excerpt: (§3) The format involved competition binding using a fixed concentration of labeled anti-CD3 mAb of known affinity and increasing concentrations of unlabeled test Abs (Ashkenazi A et al. PNAS: 88:10535, 1991.).

[6] = target: T6, cell-surface CD3 epsilon on primary human T cells (human, UniProt P07766 23-207); experiment: as above
T6 construct: whole, on cells; part of the CD3/TCR complex on the cells
T6 sequence (P07766 23-207): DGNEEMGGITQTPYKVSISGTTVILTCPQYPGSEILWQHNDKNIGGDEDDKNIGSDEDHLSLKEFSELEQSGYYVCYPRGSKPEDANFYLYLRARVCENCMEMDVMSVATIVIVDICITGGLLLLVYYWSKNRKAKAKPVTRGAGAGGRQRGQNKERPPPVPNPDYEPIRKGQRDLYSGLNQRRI
Excerpt: as §3

[7] = target: T6, cell-surface CD3 epsilon on primary …; experiment: competition flow cytometry on primary human T cells (Human Donor 10357); competitor displaced: Alexa Fluor 488-labelled CD3B146
Excerpt: as §3

Binder | Kd [1] | Kd [2] | Kd [3] | koff [3] | kon [3] | Kd [4] | koff [4] | kon [4] | Kd [5] | Kd [6] | IC50 (read off the curve) [7]
bispecific antibody 9958 Ab (bispecific antibody, human IgG4 S228P, kappa, lambda, F234A L235A, IgG4-PAA; CD3 arm of CD3B220, CD123 arm of I3RB217 (I3RB18)) heavy 1: EVQLVESGGGLVQPGGSLKLSCAASGFTFNTYAMNWVRQASGKGLEWVGRIRSKYNAYATYYAASVKGRFTISRDDSKNTAYLQMNSLKTEDTAVYYCTRHGNFGNSYVSWFAYWGQGTLVTVSSASTKGPSVFPLAPCSRSTSESTAALGCLVKDYFPEPVTVSWNSGALTSGVHTFPAVLQSSGLYSLSSVVTVPSSSLGTKTYTCNVDHKPSNTKVDKRVESKYGPPCPPCPAPEAAGGPSVFLFPPKPKDTLMISRTPEVTCVVVDVSQEDPEVQFNWYVDGVEVHNAKTKPREEQFNSTYRVVSVLTVLHQDWLNGKEYKCKVSNKGLPSSIEKTISKAKGQPREPQVYTLPPSQEEMTKNQVSLTCLVKGFYPSDIAVEWESNGQPENNYKTTPPVLDSDGSFLLYSKLTVDKSRWQEGNVFSCSVMHEALHNHYTQKSLSLSLGK light 1: QAVVTQEPSLTVSPGGTVTLTCRSSTGAVTTSNYANWVQQKPGQAPRGLIGGTNKRAPGTPARFSGSLLGGKAALTLSGAQPEDEAEYYCALWYSNLWVFGGGTKLTVLGQPKAAPSVTLFPPSSEELQANKATLVCLISDFYPGAVTVAWKADSSPVKAGVETTTPSKQSNNKYAASSYLSLTPEQWKSHRSYSCQVTHEGSTVEKTVAPTECS heavy 2: not shown light 2: EIVLTQSPGTLSLSPGERATLSCRASQSVSSSYLAWYQQKPGQAPRLLIYGASSRATGIPDRFSGSGSGTDFTLTISRLEPEDFAVYYCQQDYGFPWTFGQGTKVEIKRTVAAPSVFIFPPSDEQLKSGTASVVCLLNNFYPREAKVQWKVDNALQSGNSQESVTEQDSKDSTYSLSSTLTLSKADYEKHKVYACEVTHQGLSSPVTKSFNRGEC | 0.121 nM | 0.538 nM | 1.34 nM | 0.00079 s⁻¹ | 587000 M⁻¹ s⁻¹ | 0.311 nM | 0.0011 s⁻¹ | 3.57e+06 M⁻¹ s⁻¹ | 29.1 nM | 43 nM | ~80 nM
bispecific antibody Ab 8876 (bispecific antibody, human IgG4 S228P, kappa, lambda, F234A L235A, also called 8876I) heavy 1: EVQLLESGGGLVQPGGSLRLSCAASGFTFNTYAMNWVRQAPGKGLEWVARIRSKYNNYATYYADSVKGRFTISRDNSKNTLYLQMNSLRAEDTAVYYCVKHGNFGNSYVSWFAYWGQGTLVTVSSASTKGPSVFPLAPCSRSTSESTAALGCLVKDYFPEPVTVSWNSGALTSGVHTFPAVLQSSGLYSLSSVVTVPSSSLGTKTYTCNVDHKPSNTKVDKRVESKYGPPCPPCPAPEAAGGPSVFLFPPKPKDTLMISRTPEVTCVVVDVSQEDPEVQFNWYVDGVEVHNAKTKPREEQFNSTYRVVSVLTVLHQDWLNGKEYKCKVSNKGLPSSIEKTISKAKGQPREPQVYTLPPSQEEMTKNQVSLTCLVKGFYPSDIAVEWESNGQPENNYKTTPPVLDSDGSFLLYSKLTVDKSRWQEGNVFSCSVMHEALHNHYTQKSLSLSLGK light 1: QAVVTQEPSLTVSPGGTVTLTCRSSTGAVTTSNYANWVQQKPGQAPRGLIGGTNKRAPGTPARFSGSLLGGKAALTLSGAQPEDEAEYYCALWYSNLWVFGGGTKLTVLGQPKAAPSVTLFPPSSEELQANKATLVCLISDFYPGAVTVAWKADSSPVKAGVETTTPSKQSNNKYAASSYLSLTPEQWKSHRSYSCQVTHEGSTVEKTVAPTECS heavy 2: not shown light 2: not shown | 1.29 nM | 2.45 nM | 14.4 nM | 0.0049 s⁻¹ | 343000 M⁻¹ s⁻¹ | 1.75 nM | 0.005 s⁻¹ | 2.83e+06 M⁻¹ s⁻¹ | 110 nM | 169 nM | –
bispecific antibody Ab 7959 (bispecific antibody, human IgG4 S228P, kappa, lambda, F234A L235A, IgG4-PAA; CD3 arm of CD3B219, CD123 arm of I3RB217 (I3RB18)) heavy 1: EVQLVESGGGLVQPGGSLRLSCAASGFTFNTYAMNWVRQAPGKGLEWVARIRSKYNNYATYYAASVKGRFTISRDDSKNSLYLQMNSLKTEDTAVYYCARHGNFGNSYVSWFAYWGQGTLVTVSSASTKGPSVFPLAPCSRSTSESTAALGCLVKDYFPEPVTVSWNSGALTSGVHTFPAVLQSSGLYSLSSVVTVPSSSLGTKTYTCNVDHKPSNTKVDKRVESKYGPPCPPCPAPEAAGGPSVFLFPPKPKDTLMISRTPEVTCVVVDVSQEDPEVQFNWYVDGVEVHNAKTKPREEQFNSTYRVVSVLTVLHQDWLNGKEYKCKVSNKGLPSSIEKTISKAKGQPREPQVYTLPPSQEEMTKNQVSLTCLVKGFYPSDIAVEWESNGQPENNYKTTPPVLDSDGSFLLYSKLTVDKSRWQEGNVFSCSVMHEALHNHYTQKSLSLSLGK light 1: QTVVTQEPSLTVSPGGTVTLTCRSSTGAVTTSNYANWVQQKPGQAPRGLIGGTNKRAPGTPARFSGSLLGGKAALTLSGVQPEDEAEYYCALWYSNLWVFGGGTKLTVLGQPKAAPSVTLFPPSSEELQANKATLVCLISDFYPGAVTVAWKADSSPVKAGVETTTPSKQSNNKYAASSYLSLTPEQWKSHRSYSCQVTHEGSTVEKTVAPTECS heavy 2: not shown light 2: EIVLTQSPGTLSLSPGERATLSCRASQSVSSSYLAWYQQKPGQAPRLLIYGASSRATGIPDRFSGSGSGTDFTLTISRLEPEDFAVYYCQQDYGFPWTFGQGTKVEIKRTVAAPSVFIFPPSDEQLKSGTASVVCLLNNFYPREAKVQWKVDNALQSGNSQESVTEQDSKDSTYSLSSTLTLSKADYEKHKVYACEVTHQGLSSPVTKSFNRGEC | 0.149 nM | 0.461 nM | 1.53 nM | 0.00088 s⁻¹ | 579000 M⁻¹ s⁻¹ | 0.335 nM | 0.0013 s⁻¹ | 3.78e+06 M⁻¹ s⁻¹ | 11.2 nM | 11 nM | ~20 nM
bispecific antibody Ab 4435 (bispecific antibody, human IgG4 S228P, kappa, lambda, F234A L235A) heavy 1: EVQLLESGGGLVQPGGSLRLSCAASGFTFNTYAMNWVRQAPGKGLEWVARIRSKYNNYATYYADSVKGRFTISRDNSKNTLYLQMNSLRAEDTAVYYCVKHGNFGNSYVSWFAYWGQGTLVTVSSASTKGPSVFPLAPCSRSTSESTAALGCLVKDYFPEPVTVSWNSGALTSGVHTFPAVLQSSGLYSLSSVVTVPSSSLGTKTYTCNVDHKPSNTKVDKRVESKYGPPCPPCPAPEAAGGPSVFLFPPKPKDTLMISRTPEVTCVVVDVSQEDPEVQFNWYVDGVEVHNAKTKPREEQFNSTYRVVSVLTVLHQDWLNGKEYKCKVSNKGLPSSIEKTISKAKGQPREPQVYTLPPSQEEMTKNQVSLTCLVKGFYPSDIAVEWESNGQPENNYKTTPPVLDSDGSFLLYSKLTVDKSRWQEGNVFSCSVMHEALHNHYTQKSLSLSLGK light 1: QTVVTQEPSLTVSPGGTVTLTCRSSTGAVTTSNYANWVQQKPGQAPRGLIGGTNKRAPGTPARFSGSLLGGKAALTLSGVQPEDEAEYYCALWYSNLWVFGGGTKLTVLGQPKAAPSVTLFPPSSEELQANKATLVCLISDFYPGAVTVAWKADSSPVKAGVETTTPSKQSNNKYAASSYLSLTPEQWKSHRSYSCQVTHEGSTVEKTVAPTECS heavy 2: not shown light 2: not shown | 1.53 nM | 3.7 nM | 14.3 nM | 0.0048 s⁻¹ | 337000 M⁻¹ s⁻¹ | 1.74 nM | 0.005 s⁻¹ | 2.88e+06 M⁻¹ s⁻¹ | 139 nM | 174 nM | –
